From PMC7347456 (Structure (London, England : 1993), 2020)
Ends that are not written are not given here.

What was measured:
[1] = target: T1, full-length human LRH-1 (Liver Receptor Homolog-1; NR5A2), wild type (human, UniProt O00482 1-541); assay: fluorescence polarisation
[2] = target: full-length human LRH-1 S148R (human, UniProt O00482 1-541, S148R); assay: fluorescence polarisation
[3] = target: full-length human LRH-1 R174D/D314R (human, UniProt O00482 1-541, R174D | D314R); assay: fluorescence polarisation
[4] = target: full-length human LRH-1 A324R (human, UniProt O00482 1-541, A324R); assay: fluorescence polarisation
[5] = target: full-length human LRH-1 D314R (human, UniProt O00482 1-541, D314R); assay: fluorescence polarisation
[6] = target: T1, full-length human LRH-1 (Liver Receptor …); assay: cross-linking

T1 sequence (O00482 whole entry): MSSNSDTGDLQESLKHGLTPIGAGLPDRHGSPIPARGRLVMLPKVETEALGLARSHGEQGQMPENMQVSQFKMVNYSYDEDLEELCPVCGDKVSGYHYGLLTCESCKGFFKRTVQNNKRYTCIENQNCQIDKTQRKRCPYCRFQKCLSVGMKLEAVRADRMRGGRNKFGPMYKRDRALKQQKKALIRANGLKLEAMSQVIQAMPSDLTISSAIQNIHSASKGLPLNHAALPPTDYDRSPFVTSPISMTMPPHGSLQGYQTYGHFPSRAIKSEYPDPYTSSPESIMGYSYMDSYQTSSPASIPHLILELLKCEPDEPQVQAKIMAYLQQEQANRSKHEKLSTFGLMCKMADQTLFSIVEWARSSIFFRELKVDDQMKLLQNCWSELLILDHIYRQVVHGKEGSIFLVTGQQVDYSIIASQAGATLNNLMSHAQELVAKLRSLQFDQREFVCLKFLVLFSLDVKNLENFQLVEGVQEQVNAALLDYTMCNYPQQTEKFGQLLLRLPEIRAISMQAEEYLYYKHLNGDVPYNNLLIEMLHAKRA
Chain of full-length human LRH-1 A324R (O00482 whole entry A324R): as the sequence (O00482 whole entry) above, with A324R counted along it
Chain of full-length human LRH-1 S148R (O00482 whole entry S148R): as the sequence (O00482 whole entry) above, with S148R counted along it
Chain of full-length human LRH-1 R174D/D314R (O00482 whole entry R174D/D314R): as the sequence (O00482 whole entry) above, with R174D, D314R counted along it
Chain of full-length human LRH-1 D314R (O00482 whole entry D314R): as the sequence (O00482 whole entry) above, with D314R counted along it

Row | Kd [1] | Kd [2] | Kd [3] | Kd [4] | Kd [5] | binding result [6] | Binder
1 | 1.36 µM | 7.03 µM | 1.72 µM | 1.51 µM | 2.28 µM |  | {FAM}-EEPSLLKKLLLAPA [N-terminally FAM-labeled PGC1α co-regulator peptide (740-EEPSLLKKLLLAPA-753)]
2 |  |  |  |  |  | binds | EEPSLLKKLLLAPA [PGC1α co-activator peptide (740-EEPSLLKKLLLAPA-753), unlabeled]
